B1: library; a variant is named by its letters at N, in order (parent)
chain: GCUGUCACCGGUGCUUGGUACGUUAUAUUCAGCCGGUCUGAUGAGUCUNNNNNNAGACGAAACAGC

The variants in series [1] derive from B1. Kind of series: FACS-Seq fitted mean relative fluorescence mCherry/BFP without ligand (log10 relative fluorescence); HEK293T overexpressing SLC46A1; higher = higher reporter protein expression. The settings on record: without (6R,S)-folinic acid; ligand present: no. Put shortly: (§1)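 An mCherry reporter containing the ribozyme switch and an EF1α-BFP marker were introduced by lentivirus into HEK293T libraries. Cells were enriched, incubated 48 h with or without ligand, sorted into 6 bins by mCherry/BFP, and bin genomic DNA was PCR-amplified, barcoded and sequenced on MiSeq. Fluorescence represents the normalized fitted normal mean of the bin counts. Fitting was done on log10(mCherry/BFP), scaling to five spiked-in control ribozymes.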

The variants in series [2] derive from B1. Nature of the series: normalized RNA/DNA level without ligand (relative to sTRSVctl = 100) (log10 (% of sTRSVctl)); HEK293T overexpressing SLC46A1; higher = less ribozyme self-cleavage, higher mRNA level. The settings on record: without (6R,S)-folinic acid; ligand present: no. On the procedure:
(§2)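 Hammerhead (sTRSV) ribozyme switch libraries with a ligand aptamer grafted on stem I and a randomized N4-6 loop II, cloned into the 3' UTR of mCherry and transiently transfected into HEK293T cells; RNA-Seq 72 h post transfection with ligand added 1 h before transfection; RNA read count / plasmid DNA read count normalized to the non-cleaving sTRSVctl (x100), log10; sequences with >100 DNA reads. FACS-Seq: lentiviral library sorted into 6 bins after 48 h ligand, log-normal fit mean of mCherry/BFP scaled to controls. Printed sequences are partial switch sequences.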

Series [3] covers variants of B1. Nature of the series: FACS-Seq fitted mean relative fluorescence mCherry/BFP with ligand (log10 relative fluorescence); HEK293T overexpressing SLC46A1; ligand concentration (+) FACS-Seq: 6 mM; higher = higher reporter protein expression. Conditions: with (6R,S)-folinic acid; ligand present: yes. Put shortly: as §1
In series [4] the parent is B1. Nature of the series: normalized RNA/DNA level with ligand (relative to sTRSVctl = 100) (log10 (% of sTRSVctl)); HEK293T overexpressing SLC46A1; ligand concentration (+) RNA-Seq: 6 mM; higher = less ribozyme self-cleavage, higher mRNA level. The settings on record: with (6R,S)-folinic acid; ligand present: yes. The method, then:
as §2

± gives the standard deviation of the averaged measurements.

On to ACGUUA, for which the “FACS-Seq fitted mean (log10)” value turned out to be 0.21 ± 0.027 in series [1] and 0.285 ± 0.14 in series [3]. Besides, the “normalized RNA/DNA level without ligand (log10)” value in series [2] is 1.991 ± 0.011. The “normalized RNA/DNA level with ligand (log10)” value in series [4] turned out to be 2.02 ± 0.027.
On the same counts, the results for GCUGCC are 0.382 ± 0.084, 0.484 ± 0.32, 2.08 ± 0.0024 and 2.042 ± 0.0033.
On the same counts, the results for ACUUUA are 0.348 ± 0.12, 0.366 ± 0.15, 1.978 ± 0.014 and 2.01 ± 0.028.
For GGAAGA the same measures were 0.0463 ± 0.13, 0.239 ± 0.2, 1.993 ± 0.0044 and 2.04 ± 0.031.
In the case of ACGGCA, the figures for the “FACS-Seq fitted mean (log10)” value in series [1] and in series [3] were 0.0556 ± 0.13 and 0.139 ± 0.39, respectively. Besides, the “normalized RNA/DNA level without ligand (log10)” value in series [2] came out at 2.02 ± 0.026. Further, the “normalized RNA/DNA level with ligand (log10)” value in series [4] turned out to be 2.04 ± 0.029.
On the same counts, the results for GCUCGU are 0.5943 ± 0.0012, 0.851 ± 0.091, 2.0305 ± 0.0014 and 2.02 ± 0.037.
For UCUGGA the same measures were 0.542 ± 0.018, -0.0265 ± 0.23, 1.99 ± 0.012 and 2.05 ± 0.027.
On the same counts, the results for UCUGGG are 0.501 ± 0.098, 0.524 ± 0.01, 1.836 ± 0.012 and 1.98 ± 0.027.
Consider UCGAGU, for which the “FACS-Seq fitted mean (log10)” value is 0.379 ± 0.014 in series [1] and 0.483 ± 0.24 in series [3]. The “normalized RNA/DNA level without ligand (log10)” value in series [2] was 1.966 ± 0.014. For the same variant, the “normalized RNA/DNA level with ligand (log10)” value in series [4] stood at 2.0199 ± 0.0014.
On the same counts, the results for CCUGCU are -0.139 ± 0.054, -0.135 ± 0.0061, 2.06 ± 0.013 and 2.08 ± 0.04.
For UCGUCG, the “FACS-Seq fitted mean (log10)” value in series [1] was 0.35 ± 0.044; in series [3], 0.455 ± 0.16. Moreover, the “normalized RNA/DNA level without ligand (log10)” value in series [2] was found to be 2.02 ± 0.04. The “normalized RNA/DNA level with ligand (log10)” value in series [4] came to 2.06 ± 0.011.
Regarding UGAACG, the results for the “FACS-Seq fitted mean (log10)” value in series [1] and in series [3] were 0.174 ± 0.17 and 0.296 ± 0.022, respectively. Further, the “normalized RNA/DNA level without ligand (log10)” value in series [2] amounted to 1.83 ± 0.021. For the same variant, the “normalized RNA/DNA level with ligand (log10)” value in series [4] was found to be 2 ± 0.035.
For UGAACU the same measures were 0.534 ± 0.077, 0.35 ± 0.14, 1.988 ± 0.016 and 2 ± 0.032.
On the same counts, the results for UGACGA are 0.311 ± 0.052, 0.493 ± 0.015, 1.9519 ± 0.0017 and 2.04 ± 0.014.
On the same counts, the results for UGACGC are 0.28 ± 0.091, 0.284 ± 0.026, 2.017 ± 0.0099 and 2.033 ± 0.017.
For the variant UGACGG, the entries for the “FACS-Seq fitted mean (log10)” value in series [1] and in series [3] were -0.24 ± 0.039 and 0.0392 ± 0.065, respectively. For the same variant, the “normalized RNA/DNA level without ligand (log10)” value in series [2] was 1.748 ± 0.0057. In addition, in series [4], the “normalized RNA/DNA level with ligand (log10)” value turned out to be 1.99 ± 0.044.
On the same counts, the results for CCGAAG are -0.309 ± 0.021, -0.882 ± 0.26, 1.869 ± 0.0079 and 2 ± 0.039.
For GCUACA the same measures were -0.313 ± 0.09, -0.102 ± 0.14, 2.017 ± 0.018 and 2.03 ± 0.05.
On the same counts, the results for UCUAAA are 0.394 ± 0.046, 0.483 ± 0.022, 1.977 ± 0.0068 and 2.018 ± 0.017.
As to GGACCG, the “FACS-Seq fitted mean (log10)” value was 0.438 ± 0.24 in series [1] and 0.0255 ± 0.12 in series [3]. In series [2], the “normalized RNA/DNA level without ligand (log10)” value turned out to be 2.065 ± 0.0084. The “normalized RNA/DNA level with ligand (log10)” value in series [4] came to 2.02 ± 0.031.
On the same counts, the results for GGAGAA are 0.29 ± 0.13, 0.201 ± 0.0069, 1.961 ± 0.013 and 2.01 ± 0.022.
On the same counts, the results for GGAGAC are 0.571 ± 0.081, 0.512 ± 0.3, 2.0007 ± 0.00018 and 2.009 ± 0.0055.
For ACGGAU the same measures were 0.261 ± 0.068, 0.344 ± 0.042, 1.936 ± 0.017 and 2.01 ± 0.037.
ACUGGG: the figures for the “FACS-Seq fitted mean (log10)” value in series [1] and in series [3] were -0.0324 ± 0.033 and 0.115 ± 0.1, respectively. Further, in series [2], the “normalized RNA/DNA level without ligand (log10)” value was 1.841 ± 0.016. Moreover, the “normalized RNA/DNA level with ligand (log10)” value in series [4] came out at 2.0256 ± 0.0015.
For CCUUUA the same measures were 0.459 ± 0.027, 0.136 ± 0.057, 2.019 ± 0.018 and 2.06 ± 0.053.
On the same counts, the results for ACGCUU are -0.382 ± 0.065, -0.593 ± 0.26, 2.057 ± 0.018 and 2.047 ± 0.0046.
Take GCGCUA: the “FACS-Seq fitted mean (log10)” value in series [1] turned out to be 0.652 ± 0.016; in series [3] it was 0.697 ± 0.34. Also, in series [2], the “normalized RNA/DNA level without ligand (log10)” value was 2.067 ± 0.018. In series [4], the “normalized RNA/DNA level with ligand (log10)” value was 2.05 ± 0.021.
For UCGAAG the same measures were -0.0439 ± 0.018, -0.0157 ± 0.066, 1.74 ± 0.041 and 1.991 ± 0.0057.
On the same counts, the results for UCGAAU are 0.347 ± 0.072, 0.308 ± 0.13, 1.932 ± 0.013 and 2 ± 0.044.
UCGAUG: the “FACS-Seq fitted mean (log10)” value was 0.26 ± 0.021 in series [1] and 0.486 ± 0.017 in series [3]. In series [2], the “normalized RNA/DNA level without ligand (log10)” value came to 1.797 ± 0.015. Moreover, the “normalized RNA/DNA level with ligand (log10)” value in series [4] was found to be 1.97 ± 0.039.
As for UCGAUA, the “FACS-Seq fitted mean (log10)” value in series [1] is 0.597 ± 0.085; in series [3], 0.69 ± 0.34. In addition, the “normalized RNA/DNA level without ligand (log10)” value in series [2] is 1.987 ± 0.0049. For the same variant, the “normalized RNA/DNA level with ligand (log10)” value in series [4] is 2.02 ± 0.026.
For GCUUUA the same measures were 0.213 ± 0.02, 0.0416 ± 0.19, 1.99 ± 0.026 and 1.98 ± 0.05.
For ACGACA the same measures were -0.43 ± 0.011, -0.351 ± 0.72, 2.015 ± 0.0095 and 2.045 ± 0.019.
For ACGACG the same measures were 0.261 ± 0.092, 0.213 ± 0.08, 1.93 ± 0.021 and 2.0313 ± 0.0019.
As for ACGACC, the “FACS-Seq fitted mean (log10)” value in series [1] came to 0.728 ± 0.055; in series [3], 0.641 ± 0.33. Besides, the “normalized RNA/DNA level without ligand (log10)” value in series [2] stood at 2.066 ± 0.015. Further, in series [4], the “normalized RNA/DNA level with ligand (log10)” value was determined as 2.083 ± 0.02.
For UCUUUU the same measures were 0.427 ± 0.12, 0.26 ± 0.18, 2.005 ± 0.0088 and 2.027 ± 0.013.

The values are drawn from the supplement of paper PMC6757056.
